Experimental data: US20170158747A1

Experiments:
Test in all cases: cell-based or functional assay
[1] = molecular target: cynomolgus monkey IL10 receptor on cynomolgus whole blood cells (cynomolgus monkey)
[2] = molecular target: mouse IL10 receptor on mouse cells (whole blood, colon) (mouse) (UniProt Q61727)
[3] = molecular target: human IL10 receptor (IL10R1/R2 receptor complex) on human whole blood cells (human) (UniProt Q13651)
Chain of human IL10 receptor (IL10R1/R2 receptor complex) on human whole blood cells (human) (Q13651 22-578, chain 1 of 2): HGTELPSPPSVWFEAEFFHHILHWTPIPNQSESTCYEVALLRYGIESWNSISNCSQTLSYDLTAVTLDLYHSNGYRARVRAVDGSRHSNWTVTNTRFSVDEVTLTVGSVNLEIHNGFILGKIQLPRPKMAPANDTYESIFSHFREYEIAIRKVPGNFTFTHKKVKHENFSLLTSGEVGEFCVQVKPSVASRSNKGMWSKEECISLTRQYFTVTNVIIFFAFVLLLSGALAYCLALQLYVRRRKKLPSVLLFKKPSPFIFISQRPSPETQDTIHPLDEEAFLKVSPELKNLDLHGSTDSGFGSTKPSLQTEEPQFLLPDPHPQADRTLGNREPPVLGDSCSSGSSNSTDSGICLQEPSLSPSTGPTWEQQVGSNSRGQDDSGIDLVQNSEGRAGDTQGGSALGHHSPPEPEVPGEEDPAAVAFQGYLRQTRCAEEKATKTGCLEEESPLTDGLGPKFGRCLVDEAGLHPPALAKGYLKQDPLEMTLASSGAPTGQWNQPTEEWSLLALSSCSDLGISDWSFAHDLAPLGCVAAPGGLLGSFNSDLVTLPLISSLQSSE
Chain of human IL10 receptor (IL10R1/R2 receptor complex) on human whole blood cells (human) (Q08334 20-325, chain 2 of 2, further chain): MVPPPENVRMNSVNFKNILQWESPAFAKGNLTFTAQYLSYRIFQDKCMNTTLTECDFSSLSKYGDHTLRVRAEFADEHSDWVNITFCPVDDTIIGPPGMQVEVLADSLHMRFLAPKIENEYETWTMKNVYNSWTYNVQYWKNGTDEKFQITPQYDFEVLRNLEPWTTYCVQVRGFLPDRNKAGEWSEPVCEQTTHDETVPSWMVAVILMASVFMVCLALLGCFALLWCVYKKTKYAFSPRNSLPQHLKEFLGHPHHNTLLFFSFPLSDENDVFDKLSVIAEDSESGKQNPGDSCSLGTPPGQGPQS

Chain of mouse IL10 receptor on mouse cells (whole blood, colon) (mouse) (Q61727 17-575, chain 1 of 2): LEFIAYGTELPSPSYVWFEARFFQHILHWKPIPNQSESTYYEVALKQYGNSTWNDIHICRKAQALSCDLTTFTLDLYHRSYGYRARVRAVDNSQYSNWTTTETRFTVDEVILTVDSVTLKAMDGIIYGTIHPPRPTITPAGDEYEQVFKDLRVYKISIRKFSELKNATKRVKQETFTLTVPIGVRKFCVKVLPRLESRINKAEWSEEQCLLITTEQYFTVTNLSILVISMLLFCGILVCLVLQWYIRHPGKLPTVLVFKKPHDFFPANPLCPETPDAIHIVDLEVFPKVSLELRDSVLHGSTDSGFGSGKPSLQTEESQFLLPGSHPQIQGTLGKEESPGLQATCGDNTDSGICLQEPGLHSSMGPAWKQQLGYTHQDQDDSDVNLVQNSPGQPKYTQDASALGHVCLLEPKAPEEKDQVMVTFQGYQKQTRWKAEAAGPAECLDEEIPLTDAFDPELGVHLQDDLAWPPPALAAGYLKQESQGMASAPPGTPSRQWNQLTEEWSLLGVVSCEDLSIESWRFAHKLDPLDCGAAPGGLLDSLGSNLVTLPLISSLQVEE
Chain of mouse IL10 receptor on mouse cells (whole blood, colon) (mouse) (Q61190 20-349, chain 2 of 2, further chain): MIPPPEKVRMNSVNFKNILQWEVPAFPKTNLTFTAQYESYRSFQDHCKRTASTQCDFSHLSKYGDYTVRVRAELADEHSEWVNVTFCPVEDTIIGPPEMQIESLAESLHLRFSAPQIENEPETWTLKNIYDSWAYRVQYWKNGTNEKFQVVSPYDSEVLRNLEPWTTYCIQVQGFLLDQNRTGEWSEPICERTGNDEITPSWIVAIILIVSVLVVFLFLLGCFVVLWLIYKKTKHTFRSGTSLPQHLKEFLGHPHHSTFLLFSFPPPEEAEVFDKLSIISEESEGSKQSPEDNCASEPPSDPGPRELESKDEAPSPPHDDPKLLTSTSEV

IC30, inhibition of LPS-induced TNFα production, ex vivo cynomolgus whole blood [1]: 0.44 pM
IC50, inhibition of LPS-induced TNFα production, ex vivo cynomolgus whole blood [1]: 0.65 pM
IC90, inhibition of LPS-induced TNFα production, ex vivo cynomolgus whole blood [1]: 1.9 pM
IC30, inhibition of LPS-induced TNFα production, ex vivo mouse whole blood [2]: 0.57 pM
IC50, inhibition of LPS-induced TNFα production, ex vivo mouse whole blood [2]: 1.7 pM
IC90, inhibition of LPS-induced TNFα production, ex vivo mouse whole blood [2]: 15 pM
IC30, inhibition of LPS-induced TNFα production, ex vivo human whole blood [3]: 1.3 pM
IC50, inhibition of LPS-induced TNFα production, ex vivo human whole blood [3]: 2.8 pM
IC90, inhibition of LPS-induced TNFα production, ex vivo human whole blood [3]: 22.8 pM
Substance: recombinant human IL10 (from UniProt P22301 19-178) (ligand)
